Our source for the OD of IgE Binding (printed over relative expression level), OD and Ratio IgE Binding/Expression values is patent publication US7261890.

The target of assay [1] is recombinant canine IgE (canine). Kind of assay: IgE binding ELISA of COS supernatant; second number is the relative expression level. (An ELISA detects its analyte on a solid surface through an enzyme-linked reagent.)
Assay [2] has the same target. Description: IgE binding ELISA, COS supernatant on plate-coated recombinant canine IgE, anti-dog Fc-HRP.
Assay [3] has the same target. Kind of assay: OD of IgE binding ELISA divided by IgG expression relative to chimeric 15A2, COS supernatant.
For assay [4] the target is unchanged. Kind of assay: IgE binding ELISA of COS supernatant; in this cell the order is reversed (2.4 is the relative expression of Table 5, 0 the OD).

B1: H74-1 caninized heavy chain with 15A2 chimeric light chain Lx (antibody, part only; not given: constant regions, V domains shown, part only)
VH: EVQLVQSAAEVKKPGASVKVSCKTSGYSFTDYFMNWVQQAPGAGLDWMGRINPFNGDPFYNQKFKGRVTLTADTSTSTAYMELSSLRAEDAAVYYCARFYYGRYYAMDYWGQGTLVTV
For B1, the OD of IgE Binding (printed over relative expression level) in assay [1] stood at 1.3 OD 650 nm. In addition, the OD at 650 nm (IgE Binding) in assay [2] came to 1.3 OD 650 nm. The Ratio IgE Binding/Expression in assay [3] stood at 13.

B2: H74-1 / Group 2-1 (CDR-grafted caninized 15A2, heavy and light) (antibody, part only; not given: constant regions, V domains shown, part only)
VH: B1 VH
As to B2, the OD of IgE Binding (printed over relative expression level) in assay [4] is 0 OD 650 nm.
